Results reported in patent publication US20230126400A1 (Alector, published 2023).

T1: human MS4A4A ECL2 peptide (amino acid residues 159-179), free (human)
T1 construct: synthetic peptide; also called huMS4A4A-ELC2 free-peptide
T1 peptide: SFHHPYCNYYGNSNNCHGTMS

T2: human MS4A4A ECL1 peptide (amino acid residues 86-98) (human)
T2 construct: synthetic peptide
T2 peptide: CMASNTYGSNPIS

T3: BSA-conjugated human MS4A4A ECL2 peptide (amino acid residues 159-179) (human, conjugated to BSA (site not stated))
T3 construct: also called MS4A4A-ECL2 BSA conjugated peptide; BSA-MS4A4A-ELC2 peptide
T3 peptide: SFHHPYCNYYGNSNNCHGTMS

T4: human MS4A6A ECL1 peptide (amino acid residues 68-85) (human)
T4 peptide: SASFSPNFTQVTSTLLNS

T5: human MS4A6A ECL2 peptide (amino acid residues 138-185) (human)
T5 peptide: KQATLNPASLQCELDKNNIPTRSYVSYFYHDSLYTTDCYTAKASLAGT

B1: anti-MS4A4A antibody 4A-202 (murine) (antibody, V domains shown)
VH: QVQLQQSGAELARPGASVKLSCKASGYTFTNYWMQWVKQRPGQGLEWIGATHPGHGDTRYTQKFKGKATLSADKSSSTAYMQLSNLASEDSAVYYCAREEVYYGFRSYWYFDVWGAGTTVTVSS
VL: not shown
notes: murine hybridoma antibody
B2: anti-MS4A4A antibody 4A-25 (antibody, V domains shown)
VH: QVTLKESGPGILQPSQTLSLTCSFSGFSLRTSDMGVGWVRQPSGEGLEWLADIWWDDNKYYNPSLKSRLTISKDTSSNQVFLKITSVDTADTATYYCARRANYGNLFDYWGQGTAVTVSS
VL: DIVMTQSLKFMSTSVGDRVSITCKASQNVRSAVAWYQQKPGQSPKVLIYWASNRHTGVPDRFTGSGSGTDFTLTISNVQSEDLADYFCLQHWNYLTFGSGTKLEIK
notes: purified murine antibody
B3: anti-MS4A4A antibody 4A-208 (murine) (antibody, V domains shown)
VH: EVHLQQSGAEVVKPGASVKLSCTASGFNIKDTYIHWVMQRPEQGLEWIGRIDPANDNTKYDPKFQGKATITSDTSSNTAYLHLSSLTSEDTAVYYCARIAYGSWALDYWGQGTSVTVSS
VL: DIVMTQSQKFMSTSVGDRVIVTCKASQNVDTNVAWYQQKPGQSPKTLIYSASFRYSGVPDRFTGSGSGTDFTLSISNVQSEDLAEYFCQQYNSYPWTFGGGTKLEIK
notes: murine hybridoma antibody
B4: anti-MS4A4A antibody 4A-217 (murine) (antibody, V domains shown)
VH: EVKLVESGGGLVKPGGSLKLSCAASGFTFSSYGMSWVRQTPEKRLEWVAHISGGGTFTHYPDSVKGRFTISRDNAKNNLYLQMSSLRSEDTALYYCAREGAGTRFAYWGQGTLVTVSS
VL: DIQMTQTTSSLSASLGDRVTISCRPSQDISNSLNWYQQKPDGTVKLLIYSTSKLHSGVPSRFSGSGSGIDYSLTISNLEQEDIATYFCQQDYTLPWTFGGGTKLDVK
notes: murine hybridoma antibody
B5: anti-MS4A4A antibody 4A-205 (murine) (antibody, V domains shown)
VH: EVQLVESGGDLVKPGGSLKLSCAASGFTFSHYGMSWVRQTPDKRLDWVATIGRDGIHTDYRDSVKGRFTISRDNAKNTLYLQMGSLKSEDSAIFYCARHLYYGLYYSMDYWGQGTSVTVSS
VL: ENVLTQSPAIMSASPGEKVTMTCSASSSVSFMYWYQQKSSTSPKLWIYDTSKLASGVPGRFSGSGSGNSYSLTISSMEAEDVATYYCFQGSGYPLTFGSGTKLEIK
notes: murine hybridoma antibody
B6: anti-MS4A4A antibody 4A-17 (antibody, V domains shown)
VH: QVQLQQSAAELMKPGASVKLSCKATGYTFTGYWIEWLKQRPGHGLEWIGEILPGIGNTKYSEKFKGKATFTADTSSNTAYMQLSSLTTEDSAIYYCARSLLRAMDYWGQGTSVTVSS
VL: QIVLTQSPAIMSASPGEKVTMTCSAISSISYMHWYQLKPGTSPKRWIYDTSKLASGVPARFSGSGSGTSYSLTISSMEAEDAATYYCHQRSSYPYTFGGGTKLEIK
notes: murine hybridoma antibody
B7: anti-MS4A4A antibody 4A-5 (antibody, V domains shown)
VH: EVKVEESGGGLVQPGGSMKLSCAASGFTFSDAWMDWVRQSPEKGLEWVAEIRSKTNSHATYYAESVKGRFTISRDDSKSSVYLQMNSLRAEDTGIYYCTVDYYGIFWGQGTLVTVSS
VL: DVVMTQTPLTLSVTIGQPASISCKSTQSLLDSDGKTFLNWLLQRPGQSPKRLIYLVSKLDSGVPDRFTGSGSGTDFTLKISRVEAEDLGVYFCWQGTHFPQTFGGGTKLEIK
notes: murine hybridoma antibody
B8: anti-MS4A4A antibody 4A-12 (antibody, V domains shown)
VH: QVQLQQSGAELAQPGASVKMSCKASGYTFSSYWMYWVKQGPGQGLEWIGYINPGTGYTEYNQKFKDKATLTADKSSSTAYMQLSSLTSEDSAVYYCARFYYGSPYYYAMDYWGQGTSVTVSS
VL: DIVMTQSQKFMSTSVGDRVTFTCKASQSVDTDVAWYQQKPGQSPKLLIYSASNRYTGVPDRFTGSGSGTDFTLTISNVQSEDLADYFCHQYNSYPLTFGAGTKLELK
notes: murine hybridoma antibody

Biological target: T1, human MS4A4A ECL2 peptide (amino acid …)
Test: peptide ELISA
Procedure: (§1) Briefly, 96-well polystyrene plates were coated with 2 or 10 m/ml of synthetic free or BSA-conjugated peptides in coating buffer (0.05M carbonate buffer, pH9.6, Millipore Sigma Cat#C3041) overnight at 4° C. Coated plates were then blocked with ELISA diluent (PBS+0.5% BSA+0.05% Tween20) for 1-hour, washed 3×300 μL in PBST (PBS+0.05% Tween20, Thermo Cat#28352), and then the antibodies were added to the plate (50 μl/well). After 30 mins incubation (room temperature, with shaking), the plates were washed 3×300 μL in PBST. […] After a final set of washes (3×300 μL in PBST), 50 μL of TMB substrate (BioFx Cat#TMBW-1000-01) was added and the reaction was then quenched after 5-10 mins with 50 μL of stop solution (BioFx Cat#BSTP-1000-01). The quenched reaction wells were detected for absorbance at 650nm with a BioTek Synergy Microplate Reader using GENS 2.04 software.
B1: binds. B2: binds.

Biological target: T2, human MS4A4A ECL1 peptide (amino acid …)
Test: peptide ELISA
Procedure: as §1
B1: no binding. B3: no binding. B4: no binding. B2: no binding. B5: no binding.

These binders were tested against T6, human MS4A4A (human, UniProt Q96JQ5 1-239) (assay: FACS, K562 cells, supernatant).
Procedure: (§2) Positive clones identified in Example 22 above were expanded and then rescreened for specificity against U937, K562, and/or 300.19 cells stably overexpressing human MS4A4A or cyno MS4A4A and parental U937, K562, and/or 300.19 cells. These experiments were performed using supernatants from hybridoma clones which had undergone further expansion after initial selection. Briefly, stably transfected cells were labeled with LIVE/DEAD Fixable Aqua Dead Cell Stain Kit (ThermoFisher Scientific Cat#L34957) on ice for 30 minutes. […] 2×10⁵ cells were aliquoted per well in 96-well U-bottom plates and incubated with 50 μl of culture supernatant on ice for 30 minutes. […] Following this secondary incubation, the cells were again washed twice with ice-cold FACS buffer and resuspended in a final volume of 200 μl of FACS buffer. Analysis was performed on a FACS Canto system (BD Biosciences), with gates drawn to exclude dead (Aqua-positive) cells.
(§3) The APC ratio was calculated for each antibody as follows. […] For cell lines overexpressing human MS4A4A (h4A) or cyno MS4A4A (cy4A), the ration was calculated by comparing the binding measured to the binding observed on the corresponding parental cell lines.
B3 was tested, and the “fold increase in MFI” value was greater than 2 fold. With B5 the “fold increase in MFI” value was greater than 2 fold.

Each binder was assayed against T6, human MS4A4A (assay: FACS, HEK293, supernatant).
Procedure: (§4) Positive clones identified above were expanded and then rescreened for specificity against HEK293 cells overexpressing human MS4A4A or cyno MS4A4A and parental HEK293 cells. These experiments were performed using supernatants from hybridoma clones which had undergone further expansion after initial selection. Briefly, previously prepared, cryopreserved transiently-transfected cells were labeled with LIVE/DEAD Fixable Aqua Dead Cell Stain Kit (ThermoFisher Scientific L34957) on ice for 30 minutes. After a wash with PBS, 2×10⁵ cells were aliquoted per well in 96-well U-bottom plates and incubated with 50 μl of culture supernatant on ice for 30 minutes. […] Following this secondary incubation, the cells were again washed twice with ice-cold FACS buffer and resuspended in a final volume of 200 μl of FACS buffer. Analysis was performed on a FACS Canto system (BD Biosciences), with sort gates drawn to exclude dead (Aqua-positive) cells. Positive clones (fold change of 1.8 or greater) were carried forward for further testing.
In the case of B6, the “Human 4A:parental cell ratio” value is reported as 4.83 ratio. In the case of B7, the “Human 4A:parental cell ratio” value is reported as 27.3 ratio. B8 was tested, and the “Human 4A:parental cell ratio” value was 9.58 ratio.

The binders below were run against T7, cynomolgus (cyno) MS4A4A (cynomolgus) (assay: FACS, HEK293, supernatant).
T7 construct: also called cy4A; Cyno 4A
Procedure: as §4
In the case of B6, the “Cyno 4A:parental cell ratio” value is reported as 1.67 ratio. In the case of B7, the “Cyno 4A:parental cell ratio” value is reported as 8.49 ratio. With B8 the “Cyno 4A:parental cell ratio” value was 3.96 ratio.

Biological target: T2, human MS4A4A ECL1 peptide (amino acid …)
Test: ELISA, hybridoma supernatant
Procedure: as §1, with “1-10 μg/ml” for “2 or 10 m/ml”, “C3041)” for “Cat#C3041)”, “[…]).” for “μl/well).”, “TMBW-1000-01)” for “Cat#TMBW-1000-01)”, “BSTP-1000-01).” for “Cat#BSTP-1000-01).”, “650 nm” for “650nm”
B6: no binding. B7: no binding. B8: no binding.

Biological target: T3, BSA-conjugated human MS4A4A ECL2 …
Test: ELISA, hybridoma supernatant
Procedure: as §1, with “1-10 μg/ml” for “2 or 10 m/ml”, “C3041)” for “Cat#C3041)”, “[…]).” for “μl/well).”, “TMBW-1000-01)” for “Cat#TMBW-1000-01)”, “BSTP-1000-01).” for “Cat#BSTP-1000-01).”, “650 nm” for “650nm”
B6: no binding. B7: no binding. B8: no binding.

Biological target: T4, human MS4A6A ECL1 peptide (amino acid …)
Test: array SPR
Procedure: (§5) Binding kinetic characterization of the anti-MS4A4A antibodies to MS4A4A ECL1 and ECL2 and to MS4A6A ECL1 and ECL2 peptides was performed by Carterra (South San Francisco, Calif.) using a proprietary array Surface Plasmon Resonance (SPR) instrument (MX-96) as follows. Antibodies were captured onto a CMD500D chip (Xantec # SPMX CMD500D) using the Continous Flow Microspotter (CFM). First, the chip was activated with 100 mM MES pH 5.5, 100 μL EDC (133 mM final), 100 μL of S-NHS (33.3 mM final), for 7 minutes. […] Anti-MS4A4A hydridoma supernatant or purified anti-MS4A4A antibodies were diluted in HBS-EP+ buffer (Teknova Cat # H8022) and then printed as duplicates with a 20 minute and a 5-minute print from the same sample solution.
(§6) These were then injected on the chip for five minutes, followed by a seven-minute dissociation period at 8 uL per second in a non-regenerative kinetic series. Duplicate measurements for each anti-MS4A4A antibody were taken to ensure reproducibility. Association rates (Kon) and dissociation rates (Koff) were calculated using a single one-to-one Langmuir binding model. The equilibrium dissociation constant (KD) was calculated as the ration of Koff/Kon.
B6: no binding (tested: 2000 nM). B7: no binding (tested: 2000 nM). B8: no binding (tested: 2000 nM).

Biological target: T5, human MS4A6A ECL2 peptide (amino acid …)
Test: array SPR
Procedure: as §5, §6
B6: no binding (tested: 2000 nM). B7: no binding (tested: 2000 nM). B8: no binding (tested: 2000 nM).

Each binder was assayed against T6, human MS4A4A (assay: FACS, U937 cells, supernatant).
Procedure: as §2, §3
In the case of B3, the “fold increase in MFI” value is reported as greater than 2 fold. With B4 the “fold increase in MFI” value was greater than 2 fold. For B5, the “fold increase in MFI” value was greater than 2 fold.

Biological target: T1, human MS4A4A ECL2 peptide (amino acid …)
Test: peptide ELISA, supernatant
B3: no binding. B4: no binding. B5: no binding.

Each binder was assayed against T7, cynomolgus (cyno) MS4A4A (assay: FACS, 300.19 cells, supernatant).
Procedure: as §2, §3
For B3, the “fold increase in MFI” value was greater than 2 fold. B4 was tested, and the “fold increase in MFI” value was greater than 2 fold. For B5, the “fold increase in MFI” value was greater than 2 fold.
